“And” between values parts separate entries of the source, which are not always exact repeats. Equal entries are not always repeated.
B1: Fab S8 (Fab, V domains shown)
VH: LESGGGLVKPGGSLRLSCAASGFTFSSYAMHWVRQAPGKGLEWVAFIWFDGSNERYADSVKGRFTITRDNPKNTLYLQMNSLRVEDTAVYYCVRRGGSILTGFHLDYWGQGTLVTVSS
VL: ELTQSPSSLSASVGDRVTITCRASQGIRDDLGWYQQKPGKAPKRLIYAASNLQSGVPSRFSGGGSGTEFTLTISSLQPEDFATYYCLQHNSYPLTFGGGTKVEIKR

What follows are binders tested against B1 (assay: phage display panning on coated Fab S8, round 2, 12-mer library, 1 clone; clone not tested singly).

Binder | binding result
HTKCSDASCPLI [peptide of phage clone 2r1] | binds
HGHPLKTNTHRS [peptide of phage clone 2r3] | binds
MPNPRQNPPPPL [peptide of phage clone 2r4] | binds
NFQTPDRTQSNL [peptide of phage clone 2r5] | binds
FYTPTMHSYGIQ [peptide of phage clone 2r6] | binds
SVSPNMRMLHWW [peptide of phage clone 2r7] | binds
TTGDHRAFWLGG [peptide of phage clone 2r9] | binds
NYFQQPPERHSS [peptide of phage clone 2r10] | binds

The binders below were run against gp120 of HIV-1 SF-2 strain (HIV-1 SF-2, UniProt P03378 32-509) (assay: cell-based or functional assay).

Binder | % neutralisation, infectivity reduction assay (IRA) in MT-2 cells
B1 | 50 % neutralisation at 1 µg/ml and > 90 % neutralisation at 10 µg/ml

What follows are binders tested against gp120 of HIV-1 MN strain (HIV-1 MN, UniProt P05877 32-513) (assay: cell-based or functional assay).

Binder | % neutralisation, neutralisation plaque assay (NPA) in MT-4 cells | % neutralisation, infectivity reduction assay (IRA) in MT-2 cells
Fab S20 (Fab, V domains shown) VH: LESGGGVVQPGRSLRLSCSASGFSFRDYAMHWVRQAPGKGLEWVAFIWFDGSNERYADSVKGRFTITRDNPKNTLYLQMNSLRVEDTAVYYCVRRGGSILTGFHLDYWGQGTLVTVSS VL: ELTQSPSSLSASVGDRVTITCRASQGIRDDLGWYQQKPGKAPKRLIYAASNLQSGVPSRFSGGGSGTEFTLTISSLQPEDFATYYCLQHNSYPLTFGGGTKVEIKR | 90 % neutralisation at 20 µg/ml | 
B1 | 90 % neutralisation at 20 µg/ml | 50 % neutralisation at 1 µg/ml and > 90 % neutralisation at 10 µg/ml

The binders below were run against gp120 of HIV-1 RF strain (HIV-1 RF, UniProt P04579 32-519) (assay: cell-based or functional assay).

Binder | % neutralisation, infectivity reduction assay (IRA) in MT-2 cells
B1 | 50 % neutralisation at 1 µg/ml and > 90 % neutralisation at 10 µg/ml

Each binder was assayed against T1, recombinant gp120 III-B (HIV-1 III-B, UniProt P04578 33-511) (assay: ELISA on gp120 III-B).
T1 construct: domain: gp120; also called gp120 III-B (LAI); HIV-1 gp120
Protocol: Soluble Fabs from each resulting HC/LC pair were tested for binding to gp120 Ill-B and BSA in ELISA a s above. […] Soluble Fabs from each mutant were tested for binding to gp120 III-B and BSA in ELISA as above.

Binder | binding result
Fab S8 HCDR3 mutant Arg95Asp (Fab, V domains shown) VH: LESGGGLVKPGGSLRLSCAASGFTFSSYAMHWVRQAPGKGLEWVAFIWFDGSNERYADSVKGRFTITRDNPKNTLYLQMNSLRVEDTAVYYCVRDGGSILTGFHLDYWGQGTLVTVSS VL: ELTQSPSSLSASVGDRVTITCRASQGIRDDLGWYQQKPGKAPKRLIYAASNLQSGVPSRFSGGGSGTEFTLTISSLQPEDFATYYCLQHNSYPLTFGGGTKVEIKR | no binding
Fab S8 HCDR3 mutant Arg95Gly (Fab, V domains shown) VH: LESGGGLVKPGGSLRLSCAASGFTFSSYAMHWVRQAPGKGLEWVAFIWFDGSNERYADSVKGRFTITRDNPKNTLYLQMNSLRVEDTAVYYCVRGGGSILTGFHLDYWGQGTLVTVSS VL: ELTQSPSSLSASVGDRVTITCRASQGIRDDLGWYQQKPGKAPKRLIYAASNLQSGVPSRFSGGGSGTEFTLTISSLQPEDFATYYCLQHNSYPLTFGGGTKVEIKR | no binding
Fab S8 HCDR3 mutant Arg95Pro (Fab, V domains shown) VH: LESGGGLVKPGGSLRLSCAASGFTFSSYAMHWVRQAPGKGLEWVAFIWFDGSNERYADSVKGRFTITRDNPKNTLYLQMNSLRVEDTAVYYCVRPGGSILTGFHLDYWGQGTLVTVSS VL: ELTQSPSSLSASVGDRVTITCRASQGIRDDLGWYQQKPGKAPKRLIYAASNLQSGVPSRFSGGGSGTEFTLTISSLQPEDFATYYCLQHNSYPLTFGGGTKVEIKR | no binding
Fab S20 HCDR3 mutant Arg95Asp (Fab, V domains shown, The text names only S2095K for S20) VH: LESGGGVVQPGRSLRLSCSASGFSFRDYAMHWVRQAPGKGLEWVAFIWFDGSNERYADSVKGRFTITRDNPKNTLYLQMNSLRVEDTAVYYCVRDGGSILTGFHLDYWGQGTLVTVSS VL: ELTQSPSSLSASVGDRVTITCRASQGIRDDLGWYQQKPGKAPKRLIYAASNLQSGVPSRFSGGGSGTEFTLTISSLQPEDFATYYCLQHNSYPLTFGGGTKVEIKR | no binding
Fab S20 HCDR3 mutant Arg95Gly (Fab, V domains shown, See note of m21) VH: LESGGGVVQPGRSLRLSCSASGFSFRDYAMHWVRQAPGKGLEWVAFIWFDGSNERYADSVKGRFTITRDNPKNTLYLQMNSLRVEDTAVYYCVRGGGSILTGFHLDYWGQGTLVTVSS VL: ELTQSPSSLSASVGDRVTITCRASQGIRDDLGWYQQKPGKAPKRLIYAASNLQSGVPSRFSGGGSGTEFTLTISSLQPEDFATYYCLQHNSYPLTFGGGTKVEIKR | no binding
Fab S20 HCDR3 mutant Arg95Pro (Fab, V domains shown, See note of m21) VH: LESGGGVVQPGRSLRLSCSASGFSFRDYAMHWVRQAPGKGLEWVAFIWFDGSNERYADSVKGRFTITRDNPKNTLYLQMNSLRVEDTAVYYCVRPGGSILTGFHLDYWGQGTLVTVSS VL: ELTQSPSSLSASVGDRVTITCRASQGIRDDLGWYQQKPGKAPKRLIYAASNLQSGVPSRFSGGGSGTEFTLTISSLQPEDFATYYCLQHNSYPLTFGGGTKVEIKR | no binding

Each binder was assayed against B1 (assay: phage display panning on coated Fab S8, round 4, 7-mer library Ph.D.-C7, 2 clones; clone not tested singly).

Binder | binding result
SAMEAPP (also called 4c7) [peptide of phage clone c72R4] | binds

Each binder was assayed against B1 (assay: phage display panning on coated Fab S8, round 1, 12-mer library, 1 clone; clone not tested singly).

Binder | binding result
SGLDGMHVNSPW [peptide of phage clone 1r1] | binds
FPASMPGLLLRV [peptide of phage clone 1r2] | binds
QVMRMMPNGVYC [peptide of phage clone 1r3] | binds
QDRALITPLDQT [peptide of phage clone 1r4] | binds
HDEFVWISIWEP [peptide of phage clone 1r5] | binds
WTTNFADPPSST [peptide of phage clone 1r6] | binds
SSCAAFWSKARP [peptide of phage clone 1r7] | binds
CLSSNSSPPPRP [peptide of phage clone 1r8] | binds
HTRVLPSTAMTL [peptide of phage clone 1r9] | binds
LFQKQIESPWRS [peptide of phage clone 1r10] | binds

Each binder was assayed against B1 (assay: phage display panning on coated Fab S8, round 4, 12-mer library, 1 clone; clone not tested singly).

Binder | binding result
SASTPSSPWSRP [peptide of phage clone 4r17] | binds
TAMNLGPALFRT [peptide of phage clone 4r3] | binds
WFKPPQTPLTLM [peptide of phage clone 4r5] | binds
TMQPYKSWWSSK [peptide of phage clone 4r10] | binds
ADVMLHSKHVQM [peptide of phage clone 4r15] | binds

Each binder was assayed against B1 (assay: phage display panning on coated Fab S8, round 3, 12-mer library, 1 clone; clone not tested singly).

Binder | binding result
SAKPSYQPYAQP [peptide of phage clone 3r1] | binds
HIETLLPAPELS [peptide of phage clone 3r3] | binds
KAPIPSSIPGFR [peptide of phage clone 3r4] | binds
GTTQNAMSLARL [peptide of phage clone 3r5] | binds
QPTTPFFDWDTH [peptide of phage clone 3r6] | binds
HASTPSSPWSRP [peptide of phage clone 3r7] | binds
MQSQLYRDSPRG [peptide of phage clone 3r9] | binds
LPNATKLAPISP [peptide of phage clone 3r10] | binds

Reference: US20040106105A1 (published 2004)
